Experiments:
[1] = biological target: T1, Human SIGLEC7; test: ELISA: plate coated with 1 ug/mL human Siglec-7-Fc, antibody at 100 nM, HRP anti-mouse Fc secondary, RLU
T1 construct: also called human Siglec-7-Fc
Method: (§1) ELISA plates (384-well) were coated with 1 ug/mL indicated SIGLEC protein at room temperature. The plates were washed with PBS with 0.1% Tween®20, pH 7.4 and blocked with TBS containing 3% BSA. The plates were washed and incubated with anti-SIGLEC9 antibody diluted to 100 nM. Plates were washed and incubated with HRP-coupled anti-mouse Fc secondary antibody. Plates underwent a final wash and were incubated with HRP substrate. Readout was performed using a POLARstar Omega Microplate Reader (BMG LAPTECH).

[2] = biological target: T2, Cyno SIGLEC9; test: ELISA: plate coated with 1 ug/mL cyno Siglec-9-Fc, antibody at 100 nM, HRP anti-mouse Fc secondary, RLU
T2 construct: also called cyno Siglec-9-Fc; Cynomolgus Monkey SIGLEC9-Fc
Method: as §1

[3] = biological target: T3, Human Siglec-9-Fc (recombinant human Siglec-9 extracellular domain Q18-G348 fused to human IgG1 Fc) (human); test: BLI binning, hSiglec-9-Fc on AHC sensor; competitor bound first (row): 2F15
Method: (§2) Epitopic diversity of functional antibodies was further assessed by antibody cross-blocking experiments, performed on a ForteBio Octet Red384 system. All samples were prepared in black 384-well flat bottom plates from (Greiner, Cat. #781209) with a working volume of 120 uL and diluted in kinetics buffer (1×DPBS containing 0.1% bovine serum albumin, 0.05% sodium azide, and 0.02% Tween®20). Anti-SIGLEC-9 antibodies and human Siglec-9-Fc protein were diluted in kinetics buffer to a final concentration of 10 ug/mL. Anti-human IgG Fc capture (AHC) biosensors (ForteBio, Cat. #18-5060) were rehydrated prior to the assay in kinetics buffer for 10 minutes then equilibrated in kinetics buffer for 60 seconds. Recombinant human Siglec-9-Fc was then immobilized for 120 seconds followed by a 30 second baseline wash in fresh kinetics buffer, 120 second association of a first antibody (antibody “a”), 30 second wash, and then 120 second association of a competitor antibody (antibody “b”). All assay steps occurred at 30° C. with an acquisition rate of 5.0 Hz.
(§3) Binning results were calculated using ForteBio Data Analysis HT software. Antibody “a” and antibody “b” steps were defined, and the maximum binding calculation was averaged at the last 10% of the step duration. Once the matrix was generated the self-self interaction was subtracted and hierarchical clustering was set with a similarity metric of Pearson and Lingang Criteria by Mean and the maximum binding nm shift is reported in Table 7 below.

[4] = biological target: T3, Human Siglec-9-Fc (recombinant human …); test: BLI binning, hSiglec-9-Fc on AHC sensor; competitor bound first (row): 13H10 (printed 13H110)
Method: as §2, §3

[5] = biological target: T3, Human Siglec-9-Fc (recombinant human …); test: BLI binning, hSiglec-9-Fc on AHC sensor; competitor bound first (row): 13O18
Method: as §2, §3

[6] = biological target: T3, Human Siglec-9-Fc (recombinant human …); test: BLI binning, hSiglec-9-Fc on AHC sensor; competitor bound first (row): 9C15
Method: as §2, §3

[7] = biological target: T3, Human Siglec-9-Fc (recombinant human …); test: BLI binning, hSiglec-9-Fc on AHC sensor; competitor bound first (row): 12L19
Method: as §2, §3

[8] = biological target: T3, Human Siglec-9-Fc (recombinant human …); test: BLI binning, hSiglec-9-Fc on AHC sensor; competitor bound first (row): 9D21
Method: as §2, §3

[9] = biological target: T3, Human Siglec-9-Fc (recombinant human …); test: BLI binning, hSiglec-9-Fc on AHC sensor; competitor bound first (row): 12G23
Method: as §2, §3

[10] = biological target: T3, Human Siglec-9-Fc (recombinant human …); test: BLI binning, hSiglec-9-Fc on AHC sensor; competitor bound first (row): 3L02
Method: as §2, §3

[11] = biological target: T3, Human Siglec-9-Fc (recombinant human …); test: BLI binning, hSiglec-9-Fc on AHC sensor; competitor bound first (row): 13J19
Method: as §2, §3

[12] = biological target: T3, Human Siglec-9-Fc (recombinant human …); test: BLI binning, hSiglec-9-Fc on AHC sensor; competitor bound first (row): 12P18
Method: as §2, §3

T3 sequence (chain, as listed by the source limits assumed): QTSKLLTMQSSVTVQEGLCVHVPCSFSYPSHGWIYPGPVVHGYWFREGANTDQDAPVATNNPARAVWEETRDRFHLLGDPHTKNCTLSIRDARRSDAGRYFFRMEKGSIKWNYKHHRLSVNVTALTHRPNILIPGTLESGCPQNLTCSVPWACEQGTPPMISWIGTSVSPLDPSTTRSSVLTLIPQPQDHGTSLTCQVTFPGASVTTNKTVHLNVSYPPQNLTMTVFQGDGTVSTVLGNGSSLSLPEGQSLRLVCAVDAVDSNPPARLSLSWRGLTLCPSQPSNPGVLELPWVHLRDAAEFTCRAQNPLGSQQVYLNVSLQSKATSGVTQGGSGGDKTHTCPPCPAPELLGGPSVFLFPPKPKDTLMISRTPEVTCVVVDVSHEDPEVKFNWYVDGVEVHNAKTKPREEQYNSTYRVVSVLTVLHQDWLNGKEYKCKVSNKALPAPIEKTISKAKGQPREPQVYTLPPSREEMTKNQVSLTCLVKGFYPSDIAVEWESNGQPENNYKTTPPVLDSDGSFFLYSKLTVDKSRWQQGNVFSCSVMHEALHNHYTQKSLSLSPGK
T2 sequence (Fc fusion chain, as listed by the source): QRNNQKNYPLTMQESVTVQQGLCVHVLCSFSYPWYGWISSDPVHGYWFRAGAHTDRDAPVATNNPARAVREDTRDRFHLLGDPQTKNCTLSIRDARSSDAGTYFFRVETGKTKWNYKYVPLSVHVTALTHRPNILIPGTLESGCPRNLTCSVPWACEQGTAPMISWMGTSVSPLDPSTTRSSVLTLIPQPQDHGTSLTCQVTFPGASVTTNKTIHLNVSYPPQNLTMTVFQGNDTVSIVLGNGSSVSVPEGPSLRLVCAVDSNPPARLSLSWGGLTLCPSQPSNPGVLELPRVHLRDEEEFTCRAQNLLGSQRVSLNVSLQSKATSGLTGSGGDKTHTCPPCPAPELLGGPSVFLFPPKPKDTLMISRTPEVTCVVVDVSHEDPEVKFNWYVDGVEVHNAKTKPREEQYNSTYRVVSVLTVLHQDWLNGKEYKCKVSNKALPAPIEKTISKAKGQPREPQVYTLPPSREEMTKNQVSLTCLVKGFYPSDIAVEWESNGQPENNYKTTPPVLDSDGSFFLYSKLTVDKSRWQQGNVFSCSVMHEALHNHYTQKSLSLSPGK
T1 sequence (Fc fusion chain, as listed by the source): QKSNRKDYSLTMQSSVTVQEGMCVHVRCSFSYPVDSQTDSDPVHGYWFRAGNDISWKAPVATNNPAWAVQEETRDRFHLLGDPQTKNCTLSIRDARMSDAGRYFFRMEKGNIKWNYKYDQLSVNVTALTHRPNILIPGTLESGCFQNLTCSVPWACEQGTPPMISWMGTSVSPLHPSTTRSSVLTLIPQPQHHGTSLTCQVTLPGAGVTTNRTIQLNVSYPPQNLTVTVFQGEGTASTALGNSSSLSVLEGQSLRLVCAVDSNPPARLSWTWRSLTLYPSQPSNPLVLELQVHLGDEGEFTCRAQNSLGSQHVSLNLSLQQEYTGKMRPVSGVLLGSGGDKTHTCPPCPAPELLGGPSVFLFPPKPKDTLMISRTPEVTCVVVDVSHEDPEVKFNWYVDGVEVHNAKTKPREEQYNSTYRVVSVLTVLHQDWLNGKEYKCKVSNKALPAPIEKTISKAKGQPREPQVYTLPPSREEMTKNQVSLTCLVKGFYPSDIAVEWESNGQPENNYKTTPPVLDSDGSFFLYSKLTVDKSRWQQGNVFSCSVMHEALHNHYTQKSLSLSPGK

Row | binding result [1] | binding result [2] | maximum binding nm shift [3] [nm] | maximum binding nm shift [4] [nm] | maximum binding nm shift [5] [nm] | maximum binding nm shift [6] [nm] | maximum binding nm shift [7] [nm] | maximum binding nm shift [8] [nm] | maximum binding nm shift [9] [nm] | maximum binding nm shift [10] [nm] | maximum binding nm shift [11] [nm] | maximum binding nm shift [12] [nm] | Binder
1 | no binding (tested: 100 nM) | no binding (tested: 100 nM) | 0.352 | 0.336 | 0.358 | 0.03 | 0.518 | 0.349 | 0.439 | 0.463 | 0.324 | – | 12P18 (antibody, V domains shown) VH: QVQLQQSGAELVRPGASVTLSCKASGYTFTDYEMHWVKQTPVHGLEWIGAIDPEAGGTAYNRKFKGKAILTADKSSSTAYMELRSLTSEDSAVYYCTNLGRDYWGQGTTLTVSS VL: DIVMSQSPSSLAVSVGEKVTMSCKSSQSLLYSSTQKNYLAWYQQKPGQSPKRLIYWASTRESGVPDRFTGSGSGTDFTLTISSVKAEDLAVYYCQQYYSYWTFGGGTKLEIK
2 | – | – | 0.001 | 0.242 | 0.011 | 0.233 | 0.263 | 0.162 | – | 0.277 | 0.139 | 0.231 | 12G23 (antibody, V domains shown) VH: EVQLQQSGPELVRPGASVKMSCKASGYTFTDYNMHWVKQSHGKSLEWIGYINPNNGGTSYNQKFKGKATLTVNKSSSTAYMELRSLTSDDSAVYYCAREGYGNYPFYWGQGTTLTVSS VL: DIVLTQSPASLAVSLGQRVTISCRGSESVEYYGTSLMQWYQQKPGQPPKLLIYAASNVESGVPARFSGSGSGTDFSLNIHPVEEDDIAMYFCQQDRKVPYTFGGGTKLEIK
3 | – | – | 0.003 | 0.224 | – | 0.232 | 0.251 | 0.163 | -0.016 | 0.271 | 0.135 | 0.228 | 13O18 (antibody, V domains shown) VH: EVQLQQSGPELVRPGASVKMSCKASGYTFTDYNMHWVKQSHGKSLEWIGYINPNNGGTTYNQNFKGKATLTVNKSSSTAYMELRSLTSEDSAVYYCAREGYGNYPFYWGQGTTLTVSS VL: DIVLTQSPASLAVSLGQRVTISCRASESVEYYGTSLMQWYQQKPGQPPKLLIYAASNVESGVPARFSGSGSGTDFSLNIHPVEEDDIAMFFCQQDRKVPYTFGGGTKLEIK
4 | binds | binds | 0.619 | 0.686 | 0.495 | 0.561 | 0.73 | – | 0.524 | 0.745 | -0.022 | 0.658 | 9D21 (antibody, V domains shown) VH: QVQLKESGPGLVAPSQSLSITCTVSGFSLTRYGVSWVRQPPGKGLEWLGVIWGDGSTNYHSALISRLSISKDNSKSQVFLKLNSLQTDDTATYYCARPYYGFFDYWGQGTTLTVSS VL: SIVMTQTPKFLLVSAGDRVTITCKASQSVSNAVAWYQQKPGQSPKMLIYYASNRYTGVPDRFTGSGYGTDFTFTISTVQAEDLAVYFCQQDYSSPYTFGGGTKLEIK
5 | no binding (tested: 100 nM) | no binding (tested: 100 nM) | 0.198 | -0.02 | 0.202 | 0.231 | – | 0.263 | 0.185 | 0.09 | 0.175 | 0.379 | 12L19 (antibody, V domains shown) VH: QVTLKESGPGILQPSQTLSLTCSFSGFSLNTFGMAVGWIRQPSGKGLEWLAHIWWDDSYYFNPALRSRLTISKDTSKNQVFLTIANVDTADTATYYCTRIPDDYDDYAMDYWGQGTSVTVSS VL: DVVMTQTPLSLPVSLGDQASISCRSSQSLVHSNGNTYLHWYLQKPGQSPKLLVYKVSNRFSGVPDRFSGSGSGTDFTLKISRVEAEDLGVYFCSQNTHIPYTFGGGTKLEIK
6 | – | – | 0.399 | 0.336 | 0.392 | – | 0.392 | 0.395 | 0.352 | 0.472 | 0.282 | 0.003 | 9C15 (antibody, V domains shown) VH: QVQLQQPGAELVKPGASVKMSCKASGYTFTSYWITWLNQRPGQGLEWIGDIYPGSGGTNYNERFKSKATLTVDTSSSTAYMQLSSLTSEDSAVYYCARSGGWAMDYWGQGTSVTVSS VL: DIQMTQTTSSLSASLGDRVTISCRASQDISNYLNWYQQKPDGTVKLLIYYKSGLHSGVPSRFSGSGSGTDYSLTISNLEQEDIATYFCQQGNTLPFTFGGGTKLEIK
7 | no binding (tested: 100 nM) | – | – | – | – | – | – | – | – | – | – | – | 3L02 (antibody, V domains shown) VH: DVQLQESGPGMVKPSQSLSLTCTVTGYSITSGYDWHWIRHFPGNKLEWMGYISYSAGTNYNPSLKSRISITHDTSKNHFFLKLNSVTTEDTATYYCAREGLTAYWYFDVWGTGTTVTVSS VL: DIVMTQSQKFMSTSVGDRVSVTCKASQTVGTNVAWYQQKPGQSPKPLIYSASYRYSGVPDRFTGSGSGTDFTLTISNVQSEDLAEYFCQQYDSFPLTFGSGTKLEIK

Source: patent US20220396627A1 (VERSEAU THERAPEUTICS, published 2022)
